Target: Mycoplasma hyopneumoniae enolase (Mhp Eno, MHP168_271) (Mycoplasma hyopneumoniae)
Test: crystal structure

Substance “Mycoplasma hyopneumoniae enolase (Mhp Eno, MHP168_271) (enzyme)” has a stoichiometry N of 8.

Reference: paper PMC6585157
